The target in assay [1] is T1, human CD123 (full-length, on cells) (human, UniProt P26951 19-378).
T1 construct: also called CD123-FL; interleukin-3 receptor alpha chain
The assay can be described thus: flow cytometry on HEK 293 cells transfected with full-length CD123; apparent Kd, one-site fit. As for the experimental part:
(§1) Binding of sdAbs to human CD123 was assessed by flow cytometry. […] HEK 293 cells were transiently transfected with a plasmid encoding full-length CD123 (UniProt Accession No. P26951-1; mature form, SEQ ID NO: 1) and used as the positive cell line in FIGS. 2A to 2M, and untransfected HEK 293 cells were used as CD123-negative cells. In FIG. 2N, Molm-13 cells, which express CD123, were used as the positive cell line. Each cell type was plated at 30,000 cells/well in FACS buffer (PBS 1% BSA, 0.1% NaN₃ pH 7.4) on a 96-well round-bottom plate. The sdAbs were diluted in FACS buffer in a 3-fold, 11 point serial dilution. The sdAb dilutions were added to the plated cells, and assay plates were incubated for 30 minutes at 4° C. After washing twice in 150 μL of FACS buffer, cells in each well were resuspended in 100 μL of 1:2000 Alexa Fluor 647-conjugated Anti-Human IgG secondary diluted in FACS buffer and incubated at 4° C. for 30 minutes. The cells were washed twice more, then bound antibody was detected by flow cytometry.
(§2) Flow cytometric analysis was performed on an Intellicyte iQue Plus and fluorescence was plotted as median fluorescence intensity. The apparent affinity (Kd, nM) was determined using one site binding non-linear regression in PRISM graph software.
A general note: A flow cytometer gives signals particle by particle.

Assay [2] concerns the target T1, human CD123 (full-length, on cells). The experiment in a line: flow cytometry, HEK 293 cells transfected with full-length CD123 (CD123-FL); Median RL-1H. As to the method:
as §1, §2
Target sequence in this assay (P26951 19-378): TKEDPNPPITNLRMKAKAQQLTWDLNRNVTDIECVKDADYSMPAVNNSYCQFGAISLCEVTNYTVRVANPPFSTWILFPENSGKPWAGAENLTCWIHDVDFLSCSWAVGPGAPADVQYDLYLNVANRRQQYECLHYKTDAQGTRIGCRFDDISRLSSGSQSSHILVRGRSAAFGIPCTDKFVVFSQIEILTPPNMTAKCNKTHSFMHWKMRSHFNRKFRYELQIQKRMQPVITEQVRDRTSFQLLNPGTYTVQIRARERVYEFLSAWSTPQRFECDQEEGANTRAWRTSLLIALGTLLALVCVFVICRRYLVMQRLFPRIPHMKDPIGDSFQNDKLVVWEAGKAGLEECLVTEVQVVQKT

Assay [3] has the same target. The assay can be described thus: flow cytometry blocking assay, sdAb titrated on CD123-expressing HEK-293 cells with a fixed amount of IL-3-mFc. As to the method:
Certain CD123-binding sdAbs were tested for the ability to block CD123 binding to IL-3 by titrating the sdAb onto CD123 expressing HEK-293 cells in the presence of a fixed amount of recombinant IL-3-mFc. Bound IL-3 was detected by flow cytometry using fluorophore conjugated anti-mouse IgG specific secondary antibody.

Assay [4] deals with T2, CD123-his.
T2 construct: also called histidine tagged human CD123; His-tagged CD123 ECD
T2 extracellular domain with C-terminal His tag: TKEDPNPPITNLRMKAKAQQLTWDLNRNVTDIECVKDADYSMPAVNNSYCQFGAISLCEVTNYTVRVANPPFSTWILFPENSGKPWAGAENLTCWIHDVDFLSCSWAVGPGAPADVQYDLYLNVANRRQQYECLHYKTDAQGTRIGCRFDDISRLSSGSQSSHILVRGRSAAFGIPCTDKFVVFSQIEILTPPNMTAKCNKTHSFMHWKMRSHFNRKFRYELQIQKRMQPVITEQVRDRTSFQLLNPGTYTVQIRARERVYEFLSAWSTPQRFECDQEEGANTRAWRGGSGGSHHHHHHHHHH
The assay can be described thus: BLI, CD123-his captured on Ni-NTA sensors, first sdAb 100 nM. As for the experimental part: (§3) The epitopes of single domain antibodies (sdAbs) that comprise VHH domains that bind CD123 were compared using Bio-Layer Interferometry. 5 ug/mL of histidine tagged human CD123 was immobilized on Nickel-nitrilotriacetic acid (Ni-NTA) coated capture sensors. 100 nM of one sdAb was then loaded onto the CD123 antigen and allowed to come to equilibrium. The sensors were then transferred into 100 nM of a second sdAb.
For orientation: Biolayer interferometry detects binding as a change in optical thickness at a sensor tip.

For assay [5], the target named is T2, CD123-his. The experiment in a line: BLI, CD123-his on Ni-NTA sensors preloaded with hzA5v2, second sdAb 100 nM. As for the experimental part: as §3

The term EC50 (read off the curve) denotes the concentration that produces a half-maximal response. Read a low EC50 (read off the curve) as greater potency.

B1: F3-IgG1 (Fc fusion)
chain: EVQLVQSGGGLVQAGGSLRLSCRASGRAINSYNMGWFRQAPGKEREFVSAINWNGARTYYQDALKGRFAISRDNARNTMYLQMNNLKPEDTAVYYCAAAGRWSAAVPSGEDQYNFWGQGTQVTVDKTHTCPPCPAPGGPSVFLFPPKPKDTLMISRTPEVTCVVVDVSHEDPEVKFNWYVDGVEVHNAKTKPREEQYNSTYRVVSVLTVLHQDWLNGKEYKCKVSNKALPAPIEKTISKAKGQPREPQVYTLPPSRDELTKNQVSLTCLVKGFYPSDIAVEWESNGQPENNYKTTPPVLDSDGSFFLYSKLTVDKSRWQQGNVFSCSVMHEALHNHYTQKSLSLSPGK
notes: also called sdAb F3
On to B1, for which, in assay [1], the Kd turned out to be 0.53 nM. Also, the “EC50 (read off the curve)” value in assay [2] is roughly 0.6 nM. For the same molecule, the “IC50 (read off the curve)” value in assay [3] is roughly 1 nM.

B2: 1F5-IgG1 (Fc fusion)
chain: QVQLVQSGGGLVQAGGSLTVSCTASGRAINMYAMGWFRQAPGKEREFVAAINWNGAYTQYADSVKGRFTISRDNAKNTMYLQMNSLKPEDTAQYYCSADADYNTYVSPNKRVSYWGQGTQVTVDKTHTCPPCPAPGGPSVFLFPPKPKDTLMISRTPEVTCVVVDVSHEDPEVKFNWYVDGVEVHNAKTKPREEQYNSTYRVVSVLTVLHQDWLNGKEYKCKVSNKALPAPIEKTISKAKGQPREPQVYTLPPSRDELTKNQVSLTCLVKGFYPSDIAVEWESNGQPENNYKTTPPVLDSDGSFFLYSKLTVDKSRWQQGNVFSCSVMHEALHNHYTQKSLSLSPGK
For B2, the Kd in assay [1] was 0.97 nM. In addition, the “EC50 (read off the curve)” value in assay [2] is roughly 0.9 nM.

B3: 4F2-IgG1 (Fc fusion)
chain: EVQLVQSGGGLVQAGGSLRLSCAASGRTVSNYPMAWFRQAPGKEREFVAHISWSGITSILNSVNDRFTISRDNAKNTIYLQMNSLKPEDTAVYYCAAAQRPTAGPKGPFGYWGQGTQVTVDKTHTCPPCPAPGGPSVFLFPPKPKDTLMISRTPEVTCVVVDVSHEDPEVKFNWYVDGVEVHNAKTKPREEQYNSTYRVVSVLTVLHQDWLNGKEYKCKVSNKALPAPIEKTISKAKGQPREPQVYTLPPSRDELTKNQVSLTCLVKGFYPSDIAVEWESNGQPENNYKTTPPVLDSDGSFFLYSKLTVDKSRWQQGNVFSCSVMHEALHNHYTQKSLSLSPGK
Consider B3, for which the Kd in assay [1] is 1.37 nM. The concentration for a half-maximal effect (EC50 (read off the curve)) in assay [2] is 1 to 2 nM.

B4: hz1F5v2-IgG1 (Fc fusion)
chain: EVQLVESGGGEVQPGGSLRLSCTASGRAINMYAMGWFRQAPGKEREFVAAINWNGAYTQYAESVKGRFTISRDNAKNTLYLQMSSLRAEDTAVYYCSADADYNTYVSPNKRVSYWGQGTLVTVDKTHTCPPCPAPGGPSVFLFPPKPKDTLMISRTPEVTCVVVDVSHEDPEVKFNWYVDGVEVHNAKTKPREEQYNSTYRVVSVLTVLHQDWLNGKEYKCKVSNKALPAPIEKTISKAKGQPREPQVYTLPPSRDELTKNQVSLTCLVKGFYPSDIAVEWESNGQPENNYKTTPPVLDSDGSFFLYSKLTVDKSRWQQGNVFSCSVMHEALHNHYTQKSLSLSPGK
For B4, the Kd in assay [1] is 0.92 nM. Moreover, the “EC50 (read off the curve)” value in assay [2] was roughly 1 nM.

B5: 1B11-IgG1 (Fc fusion)
chain: QVQLVQSGGGSVQAGGSLRLSCAAAGRTQSAVAMGWFRQDPGKDRDFVAAIRWSGGNTYYADSAEGRFTISRDNAKNTVYLQMDSLKPEDTAVYSCAISMNHFGMYDYWGQGTQVTVDKTHTCPPCPAPGGPSVFLFPPKPKDTLMISRTPEVTCVVVDVSHEDPEVKFNWYVDGVEVHNAKTKPREEQYNSTYRVVSVLTVLHQDWLNGKEYKCKVSNKALPAPIEKTISKAKGQPREPQVYTLPPSRDELTKNQVSLTCLVKGFYPSDIAVEWESNGQPENNYKTTPPVLDSDGSFFLYSKLTVDKSRWQQGNVFSCSVMHEALHNHYTQKSLSLSPGK
Take B5: the Kd in assay [1] turned out to be 0.52 nM. Moreover, in assay [2], the “EC50 (read off the curve)” value is roughly 0.6 nM.

B6: A5-IgG1 (Fc fusion)
chain: EVQLVQSGGGLVQAGGSLRLSCAVSGGTFSSYGMAWFRQPPGKEREWVASNSWIAGSTYYAGSVKGRFTISRDNAKNTVYLQMNSLKPEDTAVYYCAADLLATADDEYDYWGQGTQVTVDKTHTCPPCPAPGGPSVFLFPPKPKDTLMISRTPEVTCVVVDVSHEDPEVKFNWYVDGVEVHNAKTKPREEQYNSTYRVVSVLTVLHQDWLNGKEYKCKVSNKALPAPIEKTISKAKGQPREPQVYTLPPSRDELTKNQVSLTCLVKGFYPSDIAVEWESNGQPENNYKTTPPVLDSDGSFFLYSKLTVDKSRWQQGNVFSCSVMHEALHNHYTQKSLSLSPGK
notes: No linker between VHH and Fc is stated; also called sdAb A5
As to B6, the Kd in assay [1] came to 0.12 nM. Further, in assay [3], the “IC50 (read off the curve)” value is 0.3 to 0.8 nM.

B7: hzA5v2-IgG1 (Fc fusion)
chain: EVQLVESGGGEVQPGGSLRLSCAASGGTFSSYGMAWFRQAPGKEREWVASNSWIAGSTYYAESVKGRFTISRDNAKNTVYLQMSSLRAEDTAVYYCAADLLATADDEYDYWGQGTLVTVDKTHTCPPCPAPGGPSVFLFPPKPKDTLMISRTPEVTCVVVDVSHEDPEVKFNWYVDGVEVHNAKTKPREEQYNSTYRVVSVLTVLHQDWLNGKEYKCKVSNKALPAPIEKTISKAKGQPREPQVYTLPPSRDELTKNQVSLTCLVKGFYPSDIAVEWESNGQPENNYKTTPPVLDSDGSFFLYSKLTVDKSRWQQGNVFSCSVMHEALHNHYTQKSLSLSPGK
notes: also called hzA5v2 sdAb
For the molecule B7, in assay [4], the binding result is reported as “binds”. For the same molecule, the Kd in assay [1] turned out to be 0.11 nM.

B8: hz1B11v28-IgG1 (Fc fusion)
chain: EVQLVESGGGEVQPGGSLRLSCAASGRTQSAVAMGWFRQAPGKDRDFVAAIRWSGGNTYYAESVEGRFTISRDNAKNTVYLQMSSLRAEDTAVYSCAISLNHFGLYDYWGQGTLVTVDKTHTCPPCPAPGGPSVFLFPPKPKDTLMISRTPEVTCVVVDVSHEDPEVKFNWYVDGVEVHNAKTKPREEQYNSTYRVVSVLTVLHQDWLNGKEYKCKVSNKALPAPIEKTISKAKGQPREPQVYTLPPSRDELTKNQVSLTCLVKGFYPSDIAVEWESNGQPENNYKTTPPVLDSDGSFFLYSKLTVDKSRWQQGNVFSCSVMHEALHNHYTQKSLSLSPGK
notes: also called hz1B11v28 sdAb
As for B8, the binding result in assay [4] is given as “binds”. In assay [1], the Kd was found to be 0.96 nM. Further, the “EC50 (read off the curve)” value in assay [2] is roughly 0.9 nM.

B9: hzF3v22-IgG1 (Fc fusion)
chain: EVQLVESGGGLVQPGGSLRLSCAASGRAINAYNMGWFRQAPGKGREFVSAINWNAARTYYAESVKGRFTISRDNAKNTLYLQMSSLRAEDTAVYYCAASGRWSAAVPSGEDQYNFWGQGTLVTVDKTHTCPPCPAPGGPSVFLFPPKPKDTLMISRTPEVTCVVVDVSHEDPEVKFNWYVDGVEVHNAKTKPREEQYNSTYRVVSVLTVLHQDWLNGKEYKCKVSNKALPAPIEKTISKAKGQPREPQVYTLPPSRDELTKNQVSLTCLVKGFYPSDIAVEWESNGQPENNYKTTPPVLDSDGSFFLYSKLTVDKSRWQQGNVFSCSVMHEALHNHYTQKSLSLSPGK
notes: also called hzF3v22 sdAb
As for B9, the binding result in assay [5] is “binds”. Besides, in assay [1], the Kd is 0.59 nM. Besides, the “EC50 (read off the curve)” value in assay [2] is roughly 0.7 nM.

B10: hzF3v26-IgG1 (Fc fusion)
chain: EVQLVESGGGLVQPGGSLRLSCRASGRAINAYNMGWFRQAPGKGREFVSAINWNAARTYYAESVKGRFTISRDNAKNTLYLQMSSLRAEDTAVYYCAASGRWSAAVPSGEDQYNFWGQGTLVTVDKTHTCPPCPAPGGPSVFLFPPKPKDTLMISRTPEVTCVVVDVSHEDPEVKFNWYVDGVEVHNAKTKPREEQYNSTYRVVSVLTVLHQDWLNGKEYKCKVSNKALPAPIEKTISKAKGQPREPQVYTLPPSRDELTKNQVSLTCLVKGFYPSDIAVEWESNGQPENNYKTTPPVLDSDGSFFLYSKLTVDKSRWQQGNVFSCSVMHEALHNHYTQKSLSLSPGK
As to B10, in assay [1], the Kd is 0.93 nM. Besides, the “EC50 (read off the curve)” value in assay [2] is roughly 1 nM.

These data come from patent publication US20230065306A1 (INHIBRX, published 2023).
